Some targets named below: tTF220-cys-C′ (human) (UniProt P13726); tTF221-cys-C′ (human) (UniProt P13726); H6-tTF220-cys-C′ (human) (UniProt P13726); H6-tTF219-cys-C′ (human) (UniProt P13726).
What all share (assay): cell-based or functional assay
The target in assay [1] is H6-tTF221-cys-C′ (human) (UniProt P13726).
Assay [2] addresses IgG-H6-N′-cys-tTF219 (human) (UniProt P13726).
The target in assay [3] is tTF219, truncated Tissue Factor (extracellular domain of mature Tissue Factor, amino acids 1-219) (human) (UniProt P13726).
tTF219, truncated Tissue Factor (extracellular domain of mature Tissue Factor, amino acids 1-219) (human), sequence (P13726 other isoform, or with tags, fused parts or gaps): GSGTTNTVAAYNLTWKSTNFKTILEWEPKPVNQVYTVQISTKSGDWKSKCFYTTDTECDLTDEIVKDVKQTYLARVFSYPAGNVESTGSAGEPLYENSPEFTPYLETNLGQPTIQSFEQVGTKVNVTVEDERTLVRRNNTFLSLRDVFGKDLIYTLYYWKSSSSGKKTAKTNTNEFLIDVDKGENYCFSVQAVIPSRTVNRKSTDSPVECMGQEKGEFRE
For assay [4], the target named is H6-N′-cys-tTF219 (human) (UniProt P13726).
H6-N′-cys-tTF219 (human), sequence (P13726 other isoform, or with tags, fused parts or gaps): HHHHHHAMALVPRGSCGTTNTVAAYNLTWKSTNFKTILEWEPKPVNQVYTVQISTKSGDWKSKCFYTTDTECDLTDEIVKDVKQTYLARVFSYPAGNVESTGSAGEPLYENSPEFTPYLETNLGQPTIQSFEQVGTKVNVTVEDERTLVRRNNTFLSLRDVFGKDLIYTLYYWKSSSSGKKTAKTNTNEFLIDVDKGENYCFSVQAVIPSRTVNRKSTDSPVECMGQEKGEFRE
Assay [5] concerns the target tTF219, truncated Tissue Factor (extracellular domain of mature Tissue Factor, amino acids 1-219) (human) (UniProt P13726). The source holds these as a separate data set.
The target of assay [6] is H6-tTF221-cys-C′ dimer (human) (UniProt P13726).
H6-tTF221-cys-C′ dimer (human), sequence (P13726 other isoform, or with tags, fused parts or gaps limits assumed): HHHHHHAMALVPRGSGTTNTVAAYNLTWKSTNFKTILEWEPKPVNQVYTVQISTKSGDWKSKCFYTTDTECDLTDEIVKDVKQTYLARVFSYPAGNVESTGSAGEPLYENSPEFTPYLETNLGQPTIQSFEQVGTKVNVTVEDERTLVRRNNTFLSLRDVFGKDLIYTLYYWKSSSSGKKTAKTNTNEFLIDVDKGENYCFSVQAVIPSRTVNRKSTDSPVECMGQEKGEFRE
Assay [7] deals with H6-N′-cys-tTF219 dimer (human) (UniProt P13726).
Assay [8] deals with H6-tTF221-cys-C′ (human) (UniProt P13726). This is another data set of the same source.
The target of assay [9] is tTF219, truncated Tissue Factor (extracellular domain of mature Tissue Factor, amino acids 1-219) (human) (UniProt P13726). This is another data set of the same source.
The target in assay [10] is IgG-H6-N′-cys-tTF219 (human) (UniProt P13726). The source holds these as a separate data set.
Assay [11] has as its target tTF219, truncated Tissue Factor (extracellular domain of mature Tissue Factor, amino acids 1-219) (human) (UniProt P13726). This is another data set of the same source.
The target in assay [12] is H6-N′-cys-tTF219 (human) (UniProt P13726). The source holds these as a separate data set.

Several values for one entry are separate records, joined by “and”; a condition that tells them apart may be missing. Identical values can stand only once. Like-named read-outs stand apart in the source and are kept apart here.

tTF221-cys-C′ (human), sequence (P13726 other isoform, or with tags, fused parts or gaps): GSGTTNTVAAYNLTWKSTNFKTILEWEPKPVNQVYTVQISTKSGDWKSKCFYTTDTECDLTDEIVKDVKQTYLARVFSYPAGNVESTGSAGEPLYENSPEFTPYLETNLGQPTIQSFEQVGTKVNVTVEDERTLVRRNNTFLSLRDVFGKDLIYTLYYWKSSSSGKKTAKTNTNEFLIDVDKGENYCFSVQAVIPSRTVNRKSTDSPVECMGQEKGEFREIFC
tTF220-cys-C′ (human), sequence (P13726 other isoform, or with tags, fused parts or gaps): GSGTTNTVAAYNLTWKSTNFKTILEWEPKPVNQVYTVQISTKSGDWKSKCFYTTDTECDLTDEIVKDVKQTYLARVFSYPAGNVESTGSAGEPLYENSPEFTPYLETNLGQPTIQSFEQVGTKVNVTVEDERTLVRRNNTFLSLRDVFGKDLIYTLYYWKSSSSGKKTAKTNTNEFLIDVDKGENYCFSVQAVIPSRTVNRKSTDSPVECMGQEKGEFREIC
H6-tTF219-cys-C′ (human), sequence (P13726 other isoform, or with tags, fused parts or gaps): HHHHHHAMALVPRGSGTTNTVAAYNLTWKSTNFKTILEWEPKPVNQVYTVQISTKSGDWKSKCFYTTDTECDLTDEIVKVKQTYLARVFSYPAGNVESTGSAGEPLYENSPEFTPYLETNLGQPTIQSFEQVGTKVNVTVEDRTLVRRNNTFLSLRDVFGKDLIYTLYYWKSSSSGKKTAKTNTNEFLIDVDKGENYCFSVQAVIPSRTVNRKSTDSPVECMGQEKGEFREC

Regarding “B21-2/10H10 bispecific antibody (Fab′ arm of the B21-2 antibody, specific for I-A^d, linked to the Fab′ arm of the 10H10 antibody, specific for tTF)”, the tTF concentration giving coagulation in 50 seconds with H6-tTF221-cys-C′ (human) [1] is 500 pM; with tTF220-cys-C′ (human), 500 pM; with tTF221-cys-C′ (human) it was 500 pM; in [3], 500 pM; in the assay with H6-tTF220-cys-C′ (human), 500 pM; with H6-tTF219-cys-C′ (human) it was 3 nM. Moreover, the tTF concentration giving coagulation in 50 seconds with H6-N′-cys-tTF219 (human) [4] was 3 nM; in [5] it was 3 nM; in assay [6], 4 nM; in [7], 100 pM and 200 pM; with H6-tTF221-cys-C′ (human) [8], 1 nM; in assay [9], 100 pM and 200 pM. Further, the tTF concentration giving coagulation in 50 seconds was 5 nM in assay [10], 1 nM in assay [11] and 1 nM with H6-N′-cys-tTF219 (human) [12]. Also, in [2], the fold less active than H6-N′-cys-tTF219 at inducing Xa formation was found to be 2 fold. For the same substance, the clotting time in assay [3] was 60 s. In addition, the clotting time (time for the first fibrin strands to form), mouse plasma on A20 cells in assay [3] worked out at 36 s. Also, the fold less active than H6-tTF221-cys-C′ monomer or tTF219 at inducing coagulation in [6] was 4 fold. This substance also returned a fold reduction of coagulation inducing activity relative to unconjugated H6-N′-cys-tTF219 or tTF219 in assay [10] of 5 fold.
